From US20120252054A1, “SYSTEM FOR TRANSFORMATION OF THE CHLOROPLAST GENOME OF SCENEDESMUS SP. AND DUNALIELLA SP” (priority 2009, published 2012) come the findings set out here.

This experiment can be described thus: Endoxylanase enzyme function assay on clarified lysates. It is filed as biochemical, T. reesei. The settings on record: clarified lysates of S. dimorphus transformants (parent 2 and 4), normalized for total soluble protein, pH 4.8, 42 degrees Celsius. How it is done:
To determine if the endoxylanase produced by transformed algae cells was functional, endoxylanase activity was tested using an enzyme function assay. Briefly, algae cells were collected from TAP agar medium and suspended in BugBuster solution (Novagen). Cells were lysed by bead beating using zirconium beads. Cell lysates were clarified by centrifugation and the supernatants were normalized for total soluble protein (Coomassie Plus Protein Assay Kit, Thermo Scientific). 100 μL of each sample was mixed with 10 μL of 10× xylanase assay buffer (1M sodium acetate, pH=4.8) and 50 μL of the sample mixture was added to one well in a black 96-well plate. EnzCheck Ultra Xylanase substrate (Invitrogen) was dissolved at a concentration of 50 ug/ml in 100 mM sodium acetate pH 4.8, and 50 μL of substrate was added to each well of the microplate. The fluorescent signal was measured in a SpectraMax M2 microplate reader (Molecular Devices), with an excitation wavelength of 360 nm and an emission wavelength of 460 nm, without a cutoff filter and with the plate chamber set to 42 degrees Celsius. The fluorescence signal was measured for 15 minutes, and the enzyme velocity was calculated with Softmax Pro v5.2 (Molecular Devices). Enzyme velocities were recorded as RFU/minute. Enzyme specific activities were calculated as milliRFU per minute per μg of total soluble protein.

B1: endoxylanse: endoxylanase from T. reesei (BD11) expressed in the S. dimorphus chloroplast (protein)
chain: MVPVSFTSLLAASPPSRASCRPAAEVESVAVEKRQTIQPGTGYNNGYFYSYWNDGHGGVTYTNGPGGQFSVNWSNSGNFVGGKGWQPGTKNKVINFSGSYNPNGNSYLSVYGWSRNPLIEYYIVENFGTYNPSTGATKLGEVTSDGSVYDIYRTQRVNQPSIIGTATFYQYWSVRRNHRSSGSVNTANHFNAWAQQGLTLGTMDYQIVAVEGYFSSGSASITVSGTGDYKDDDDKSGENLYFQGHNHRHKHTG
modifications: codon optimized endoxylanase from T. reesei
notes: endoxylanase from T. reesei (BD11) expressed in the S. dimorphus chloroplast
As to B1, the “endoxylanase activity in transformants relative to wild type cells” value was “at least 4 fold”.
